In paper PMC8125234, “Cardiolipin Stabilizes and Increases Catalytic Efficiency of Carnitine Palmitoyltransferase II and Its Variants S113L, P50H, and Y479F” (International Journal of Molecular Sciences, 2021):
Changes are numbered by the printed parent chain. Names may count otherwise. “And” between values parts separate entries of the source, which are not always exact repeats. Equal entries are not always repeated.

B1: CPT II WT (Homo sapiens) (protein)
chain: SAGSGPGQYLQRSIVPTMHYQDSLPRLPIPKLEDTIRRYLSAQKPLLNDGQFRKTEQFCKSFENGIGKELHEQLVALDKQNKHTSYISGPWFDMYLSARDSVVLNFNPFMAFNPDPKSEYNDQLTRATNMTVSAIRFLKTLRAGLLEPEVFHLNPAKSDTITFKRLIRFVPSSLSWYGAYLVNAYPLDMSQYFRLFNSTRLPKPSRDELFTDDKARHLLVLRKGNFYIFDVLDQDGNIVSPSEIQAHLKYILSDSSPAPEFPLAYLTSENRDIWAELRQKLMSSGNEESLRKVDSAVFCLCLDDFPIKDLVHLSHNMLHGDGTNRWFDKSFNLIIAKDGSTAVHFEHSWGDGVAVLRFFNEVFKDSTQTPAVTPQSQPATTDSTVTVQKLNFELTDALKTGITAAKEKFDATMKTLTIDCVQFQRGGKEFLKKQKLSPDAVAQLAFQMAFLRQYGQTVATYESCSTAAFKHGRTETIRPASVYTKRCSEAFVREPSRHSAGELQQMMVECSKYHGQLTKEAAMGQGFDRHLFALRHLAAAKGIILPELYLDPAYGQINHNVLSTSTLSSPAVNLGGFAPVVSDGFGVGYAVHDNWIGCNVSSYPGRNAREFLQCVEKALEDMFDALEGKSIKS
notes: made in house; host or cells: Escherichia coli BL21Gold DE
B2: CPT II variant S113L (Homo sapiens; S113L) (protein)
chain: B1 chain with S88L
notes: as for B1
B3: CPT II variant Y479F (Homo sapiens; Y479F) (protein)
chain: B1 chain with Y454F
notes: as for B1

Columns and labels:
[1] = nanoDSF thermostability of recombinant CPT II enzymes in assay buffer; assay type: physicochemical; conditions: for TM in Buffer: assay buffer, 1 mg/mL protein, nanoDSF; for ∆TM in Buffer: reference TM of WT in buffer (ΔTM = 0 °C)
Description: The protein stability was investigated applying nano differential scanning fluorimetry (nanoDSF) using a protein concentration of 1 mg/mL in assay buffer. […] The heating rate has been set to 1 °C per min. A heating ramp from 15 to 95 °C was determined. The nanoDSF data were obtained using a Prometheus NT.48 device. First derivatives were calculated using PR.ThermControl software (NanoTemper Technologies GmbH, Munich, Germany). Experiments were performed at least three times independently as double determination.

[2] = Onset of aggregation by scattered light back reflection during heating ramp; assay type: physicochemical; conditions: assay buffer; heating ramp 15 °C to 80 °C
Description: Supplementary materials can be found at https://www.mdpi.com/article/10.3390/ijms22094831/s1, Figure S1: Scattered light back reflection as measure for aggregation during the heating ramp from 15 °C to 80 °C of CPT II WT (black) and the variants P50H (red), S113L (blue) and Y479F (green) in assay buffer (magenta). The light scattering data were obtained simultaneously with nanoDSF data using the back reflection technology in a Prometheus NT.48 device. The unfolding of proteins leads to display of hydrophobic regions of the protein on the surface, which is followed by hydrophobic interaction of the protein molecules resulting in aggregation events. These aggregates are then detected via light scattering. […] The data allow the detection of onset of aggregation (Tagg) which differs clearly among the variants. The Tagg for WT is 38 °C, Y479F is 37 °C, S113L is 35 °C and P50H is 32 °C. […] Figure S2: The first derivatives of the transition curves of WT and the variants resulting from the ratio 350/330 nm were plotted against the temperature. The black, red, blue and green solid lines show the curves of WT and variants P50H, S113L and Y479F measured in assay buffer, respectively. The black, red, blue and green dashed lines show the maxima of the values of the first derivatives of the ratio 350 nm/330 nm of WT and variants P50H, S113L and Y479F, respectively. Figure S3: The effect of amino acid exchange in absence and presence of n-octyl-β-d-glucopyranoside (β-OG) on the stability of CPT II (1 mg/mL) assessed by nanoDSF. The TM of WT (37 °C) in buffer was used as reference value (ΔTM = 0 °C) to determine the ΔTM for the variants and the ΔTM for WT and variants in presence of β- OG. Error bars are SD derived from three independent experiments. Table S1. Comparison of the mean values of the half-lives (t1/2) of CPT II WT and the variants at 30 °C with the half-lives at 37, 40 or 42 °C. The differences of the half-lives for each CPT II enzyme between 37 and 40 or 42 °C as well as 40 and 42 °C are not significant. Number of experiments for each variant (n ≥ 3). Table S2. Comparison of the mean values of the half-lives (t1/2) between CPT II WT and the variants Y479F, S113L and P50H at 30, 37, 40 or 42 °C. n ≥ 3. Table S3. […] Comparison of the ∆TM-values of CPT II WT and the variants Y479F, S113L and P50H in buffer or in presence of 0.25 mM cardiolipin or 1% n-octyl-β-d-glucopyranoside (β-OG) assessed by nanoDSF (n ≥ 3). […] Comparison of the transition temperatures (TM) of WT and the variants Y479F, S113L and P50H in buffer with of 0.25 mM cardiolipin or 1% n-octyl-β-d-glucopyranoside (β-OG) assessed by nanoDSF (n ≥ 3). […]

[3] = substrate: C[N+](C)(C)C[C@H](O)CC(=O)[O-]; experiment: Determination of the kinetic parameters kcat and KM; assay type: biochemical, human; conditions: L-carnitine varied, absence of CL, 25 °C
Description: Before activity measurements, the storage buffer of the enzymes was replaced with assay buffer (50 mM KH2PO4, 120 mM KCl, 1 mM EDTA-Na4) using vivaspin turbo 4 tubes (Satorius Stedim biotech GmbH, Göttingen, Germany) at 4 °C. The pH of assay buffer was adjusted with KOH to 7.4. The storage buffer was diluted at least 1:500 in assay buffer. In addition, before each experimental set up, the protein samples were centrifuged at 16,000× g for 5 min at 4 °C to remove any micro-aggregates. After that, the protein concentration was determined using bicinchoninic acid (BCA) protein assay kit (Thermo Fisher Scientific GmbH, Berlin, Germany). The enzyme activity of recombinant CPT II was performed following Rufer et al. with modifications described elsewhere. […] After pre-conditioning the mixture to 25 °C for 2 min, the reaction was started by adding 15 nM of recombinant enzyme. The reverse reaction of CPT II was detected with the enzyme activity assay. CPT II catalyzed the transfer of fatty acid residue from Pal-CoA to L-carnitine with release of CoA and Pal-carnitine. The released CoA was then detected by the reaction of the free thiol group with DTNB, forming 5-mercapto-(2-nitrobenzoic acid). This compound has a molar extinction coefficient of 13,600 M^−1 cm^−1 at a wavelength of 410 nm, and its formation was followed spectroscopically. […] The slope of the progress curve was used to determine the reaction velocity.
It is assumed that the reaction catalyzed by CPT II represents a ping-pong mechanism or compulsory order ternary-complex mechanism.
The kinetic parameters were determined by evaluating the obtained v/S characteristic according to the Michaelis–Menten Equation (1). The […] kcat was calculated using Equation (2):(1) v=Vmax∗[S]/KM+[S] (2) kcat=Vmax/cenzyme

| Molecule | TM in Buffer [1] | ∆TM in Buffer [1] [°C] | Onset of aggregation (Tagg) [2] [°C] | Km ([3]; other: WT) [mM] | kcat ([3]; other: WT) [s⁻¹] | kcat/Km ([3]; other: WT) [M⁻¹ s⁻¹] | Km ([3]; other: S113L) [mM] | kcat ([3]; other: S113L) [s⁻¹] | kcat/Km ([3]; other: S113L) [M⁻¹ s⁻¹] | Km ([3]; other: Y479F) [mM] | kcat ([3]; other: Y479F) [s⁻¹] | kcat/Km ([3]; other: Y479F) [M⁻¹ s⁻¹] |
| --- | --- | --- | --- | --- | --- | --- | --- | --- | --- | --- | --- | --- |
| B1 | 36.9 ± 1.0 °C and 37 °C | 0.0 ± 1.0 | 38 | 15.1 ± 3.4 | 149 ± 11.1 | 9800 ± 1600 |  |  |  |  |  |  |
| B2 |  | -3.1 ± 0.7 | 35 |  |  |  | 15.5 ± 2.3 | 144 ± 5 | 9300 ± 1400 |  |  |  |
| B3 | 36.2 ± 1.2 °C | -0.74 ± 1.2 | 37 |  |  |  |  |  |  | 17.4 ± 4.4 | 140 ± 18.5 | 8100 ± 1100 |
